T1: huFcγRIIβ (human, UniProt P31994 46-217)
T1 construct: also called huR2b; human FcγRIIβ (soluble antigen)
T1 sequence (looked up): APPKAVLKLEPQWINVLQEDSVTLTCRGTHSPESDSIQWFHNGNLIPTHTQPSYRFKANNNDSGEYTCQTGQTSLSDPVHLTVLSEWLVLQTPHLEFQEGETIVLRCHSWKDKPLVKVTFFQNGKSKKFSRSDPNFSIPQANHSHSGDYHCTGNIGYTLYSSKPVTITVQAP

T2: huFcγRIIα (R131) (human, UniProt P12318 36-218)
T2 construct: R131 allotype; also called human FcγRIIα R131 (soluble antigen)
T2 sequence (looked up): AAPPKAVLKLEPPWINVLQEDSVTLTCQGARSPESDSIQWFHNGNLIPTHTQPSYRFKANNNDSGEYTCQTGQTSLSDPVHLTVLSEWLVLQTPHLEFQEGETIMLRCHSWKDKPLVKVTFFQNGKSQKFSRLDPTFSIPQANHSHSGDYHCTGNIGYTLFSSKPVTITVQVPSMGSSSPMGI

T3: human FcγRIIβ (human, UniProt P31994 46-217, limits assumed)
T3 construct: also called FcγRIIb; R2b
T3 sequence (looked up): T1 sequence (looked up)

B1: TA30 (bispecific antibody, human IgG1, kappa)
heavy: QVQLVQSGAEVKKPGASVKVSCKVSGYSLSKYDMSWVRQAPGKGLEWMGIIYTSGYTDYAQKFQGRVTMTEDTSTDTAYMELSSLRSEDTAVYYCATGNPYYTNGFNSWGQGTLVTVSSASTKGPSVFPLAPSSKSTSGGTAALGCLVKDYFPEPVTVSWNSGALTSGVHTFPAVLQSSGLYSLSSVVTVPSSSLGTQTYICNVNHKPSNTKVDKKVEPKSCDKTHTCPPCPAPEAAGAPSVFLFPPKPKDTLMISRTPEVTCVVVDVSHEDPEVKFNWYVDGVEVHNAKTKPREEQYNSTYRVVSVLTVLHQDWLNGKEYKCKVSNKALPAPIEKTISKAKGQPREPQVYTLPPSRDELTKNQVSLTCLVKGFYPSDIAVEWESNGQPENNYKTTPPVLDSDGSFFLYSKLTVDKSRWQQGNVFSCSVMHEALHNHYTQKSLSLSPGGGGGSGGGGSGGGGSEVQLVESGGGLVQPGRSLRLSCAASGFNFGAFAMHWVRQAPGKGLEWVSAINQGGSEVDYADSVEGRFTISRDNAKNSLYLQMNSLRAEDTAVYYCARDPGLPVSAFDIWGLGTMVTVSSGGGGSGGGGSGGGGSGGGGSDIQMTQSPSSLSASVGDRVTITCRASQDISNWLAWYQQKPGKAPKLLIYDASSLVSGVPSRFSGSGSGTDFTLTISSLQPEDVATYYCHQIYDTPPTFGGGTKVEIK
light: DIQMTQSPSSLSASVGDRVTITCQASQSPNNLLAWYQQKPGKAPKLLIYGASDLPSGVPSRFSGSGSGTDFTLTISSLQPEDFATYYCQNNYYVGPVSYAFGGGTKVEIKRTVAAPSVFIFPPSDEQLKSGTASVVCLLNNFYPREAKVQWKVDNALQSGNSQESVTEQDSKDSTYSLSSTLTLSKADYEKHKVYACEVTHQGLSSPVTKSFNRGEC
B2: TA25 (bispecific antibody, human IgG1, kappa)
heavy: not shown
light: B1 light
B3: TA26 (bispecific antibody, human IgG1, kappa)
heavy: not shown
light: B1 light
B4: TA36 (bispecific antibody, human IgG1, kappa)
heavy: not shown
light: B1 light
B5: TA28 (bispecific antibody, human IgG1, kappa)
heavy: not shown
light: B1 light
B6: TA39 (bispecific antibody, human IgG1, kappa)
heavy: not shown
light: B1 light
B7: TA322 (antibody, human IgG1, kappa)
heavy: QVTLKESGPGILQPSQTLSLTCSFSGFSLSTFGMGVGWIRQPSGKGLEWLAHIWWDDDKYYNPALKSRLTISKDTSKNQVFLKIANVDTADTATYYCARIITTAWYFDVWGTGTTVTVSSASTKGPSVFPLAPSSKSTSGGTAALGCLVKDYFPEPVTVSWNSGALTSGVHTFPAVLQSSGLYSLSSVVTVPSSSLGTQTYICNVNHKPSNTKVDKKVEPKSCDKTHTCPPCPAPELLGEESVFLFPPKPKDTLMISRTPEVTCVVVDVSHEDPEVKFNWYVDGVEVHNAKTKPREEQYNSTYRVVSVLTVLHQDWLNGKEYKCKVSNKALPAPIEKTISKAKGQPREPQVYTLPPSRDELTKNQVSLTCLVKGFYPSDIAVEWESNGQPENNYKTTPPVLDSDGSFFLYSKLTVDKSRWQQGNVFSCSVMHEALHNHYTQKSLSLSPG
light: QAVVTQESALTTSPGETVTLTCRSSTGAVTTSNYANWVQEKPDHLFTGLIGGTNNRAPGVPARFSGSLIGDKAALTITGAQTEDEAIYFCALWYSNHFIFGSGTKVTVLRTVAAPSVFIFPPSDEQLKSGTASVVCLLNNFYPREAKVQWKVDNALQSGNSQESVTEQDSKDSTYSLSSTLTLSKADYEKHKVYACEVTHQGLSSPVTKSFNRGEC
B8: TA359 (antibody, human IgG1, lambda)
heavy: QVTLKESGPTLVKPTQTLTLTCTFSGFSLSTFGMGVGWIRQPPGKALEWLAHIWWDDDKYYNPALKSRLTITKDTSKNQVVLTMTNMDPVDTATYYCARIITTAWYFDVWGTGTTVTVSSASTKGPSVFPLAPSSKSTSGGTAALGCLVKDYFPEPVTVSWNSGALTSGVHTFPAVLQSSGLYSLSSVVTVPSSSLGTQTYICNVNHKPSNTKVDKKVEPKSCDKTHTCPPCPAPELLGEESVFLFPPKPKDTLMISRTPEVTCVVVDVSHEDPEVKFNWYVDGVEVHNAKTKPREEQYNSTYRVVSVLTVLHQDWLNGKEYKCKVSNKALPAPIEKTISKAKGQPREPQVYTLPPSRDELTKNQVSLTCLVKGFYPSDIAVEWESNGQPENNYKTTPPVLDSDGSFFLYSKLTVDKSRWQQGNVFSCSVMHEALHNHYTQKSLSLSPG
light: QAVVTQEPSLTVSPGGTVTLTCRSSTGAVTTSNYANWVQQKPGQAFRGLIGGTNNRAPGVPDRFSGSILGNKAALTITGAQADDESDYYCALWYSNHFIFGSGTKVTVLGQPKAAPSVTLFPPSSEELQANKATLVCLISDFYPGAVTVAWKADSSPVKAGVETTTPSKQSNNKYAASSYLSLTPEQWKSHRSYSCQVTHEGSTVEKTVAPTECS
B9: TA36 (bispecific antibody, human IgG1, kappa)
heavy: not shown
light: B1 light
B10: TA28 (bispecific antibody, human IgG1, kappa)
heavy: not shown
light: B1 light
B11: TA39 (bispecific antibody, human IgG1, kappa)
heavy: not shown
light: B1 light
B12: TA26 (bispecific antibody, human IgG1, kappa)
heavy: not shown
light: B1 light
B13: TA25 (bispecific antibody, human IgG1, kappa)
heavy: not shown
light: B1 light
B14: ARB49 (antibody, human IgG1, kappa)
heavy: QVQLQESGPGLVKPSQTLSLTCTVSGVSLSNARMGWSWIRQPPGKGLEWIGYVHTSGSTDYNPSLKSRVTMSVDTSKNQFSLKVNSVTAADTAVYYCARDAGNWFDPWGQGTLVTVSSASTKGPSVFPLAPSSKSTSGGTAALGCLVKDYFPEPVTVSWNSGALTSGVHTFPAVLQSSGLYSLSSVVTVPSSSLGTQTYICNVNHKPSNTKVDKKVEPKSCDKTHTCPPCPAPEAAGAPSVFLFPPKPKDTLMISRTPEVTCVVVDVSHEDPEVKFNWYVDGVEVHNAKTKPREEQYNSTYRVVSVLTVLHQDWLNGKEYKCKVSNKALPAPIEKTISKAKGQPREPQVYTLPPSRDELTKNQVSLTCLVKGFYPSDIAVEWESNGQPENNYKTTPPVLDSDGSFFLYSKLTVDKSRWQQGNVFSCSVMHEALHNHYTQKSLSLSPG
light: EIVMTQSPATLSLSPGERATLSCRASQSLSSSHLAWYQQKPGQAPRLLIYDASIRVPGIPARFSGSGSGTDFTLTISSLEPEDFAVYYCQQYAVPPITFGGGTKVEIKRTVAAPSVFIFPPSDEQLKSGTASVVCLLNNFYPREAKVQWKVDNALQSGNSQESVTEQDSKDSTYSLSSTLTLSKADYEKHKVYACEVTHQGLSSPVTKSFNRGEC
notes: copies: 2 + 2
B15: ARB40 (antibody, human IgG1, kappa)
heavy: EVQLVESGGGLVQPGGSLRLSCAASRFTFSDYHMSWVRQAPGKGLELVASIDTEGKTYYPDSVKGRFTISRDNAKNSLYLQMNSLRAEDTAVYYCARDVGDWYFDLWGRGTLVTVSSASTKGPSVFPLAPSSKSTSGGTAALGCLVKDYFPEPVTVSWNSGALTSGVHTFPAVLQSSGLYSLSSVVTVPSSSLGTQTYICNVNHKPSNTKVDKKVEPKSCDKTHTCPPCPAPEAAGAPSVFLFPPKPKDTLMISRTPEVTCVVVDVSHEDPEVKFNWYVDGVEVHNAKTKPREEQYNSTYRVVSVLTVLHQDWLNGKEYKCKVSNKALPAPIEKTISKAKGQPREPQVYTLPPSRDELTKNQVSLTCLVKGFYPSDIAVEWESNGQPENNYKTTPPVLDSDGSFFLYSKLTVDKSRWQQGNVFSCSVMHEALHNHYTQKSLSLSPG
light: DIVMTQSPLSLPVTPGEPASISCRSSRSLVHGSGDNYLHWYLQKPGQSPQLLIYMASNRAPGVPDRFSGSGSGTDFTLKISRVEAEDVGVYYCMQALRAPFSFGGGTKVEIKRTVAAPSVFIFPPSDEQLKSGTASVVCLLNNFYPREAKVQWKVDNALQSGNSQESVTEQDSKDSTYSLSSTLTLSKADYEKHKVYACEVTHQGLSSPVTKSFNRGEC
notes: copies: 2 + 2

biological target: T4, CyR2a (monkey); experiment: SPR, antibody captured on protein A/G chip, receptor injected as analyte
T4 construct: also called monkey FcγRIIα; Cy FcγRIIα
Method: (§1) Example 21: Anti-FcγRIIβ antibodies were captured on protein A/G chips at 10 ug/mL, 1 ug/mL and 0.1 ug/mL concentrations (in duplicates). Each analyte binder was injected at 7 concentrations with 5-fold serial dilutions, with the starting concentration for FcγRs at 5 uM, and for PD-1 at 0.5 uM. […] Kinetics data was subsequently collected.

| Binder | Kd |
| --- | --- |
| B1 | 1120 nM |
| B2 | 777 nM |
| B3 | 2480 nM |
| B4 | 2300 nM |

biological target: T5, CyR2b (monkey); experiment: as above
T5 construct: also called monkey FcγRIIβ; Cy FcγRIIβ
Method: as §1

| Binder | Kd |
| --- | --- |
| B1 | 1210 nM |
| B2 | 1500 nM |
| B3 | 3130 nM |
| B4 | 3660 nM |

biological target: huR2a (human, UniProt P12318 36-218); experiment: as above
Method: as §1

| Binder | Kd |
| --- | --- |
| B1 | 0.633 µM |
| B2 | 6.08 µM |
| B3 | 6.51 µM |
| B4 | 4.06 µM |

biological target: T1, huFcγRIIβ; experiment: as above
Method: as §1

| Binder | Kd |
| --- | --- |
| B1 | 56.1 nM |
| B2 | 253 nM |
| B3 | 154 nM |
| B4 | 299 nM |

biological target: T2, huFcγRIIα (R131); experiment: BLI, antibody captured on AHC biosensors, receptor in solution
Method: (§2) Example 19: Anti-FcγRIIβ antibodies were captured on AHC biosensors at a concentration of 5 μg/mL. Antigens (FcγRIIα/FcγRIIβ) were serially diluted two-fold with a starting concentration of 5u M. The biosensors with immobilized antibodies were dipped into the different antigen concentrations and kinetics data were collected.

| Binder | Kd |
| --- | --- |
| B5 | 623 nM |
| B2 | 114000 nM |
| B6 | 115 nM |
| B3 | 715 nM |
| B4 | 141 nM |

biological target: T1, huFcγRIIβ; experiment: as above
Method: as §2

| Binder | Kd |
| --- | --- |
| B5 | 11 nM |
| B2 | 122 nM |
| B6 | 30.3 nM |
| B3 | 50.2 nM |
| B4 | 45 nM |

biological target: T3, human FcγRIIβ; experiment: Fc receptor affinity, Table 29 (method for Fc receptors not told in Example 43)

| Binder | Kd |
| --- | --- |
| B7 | 3.5 µM |
| B8 | 3.1 µM |

biological target: FcγRI; experiment: as above
Sequence (P12314 16-292): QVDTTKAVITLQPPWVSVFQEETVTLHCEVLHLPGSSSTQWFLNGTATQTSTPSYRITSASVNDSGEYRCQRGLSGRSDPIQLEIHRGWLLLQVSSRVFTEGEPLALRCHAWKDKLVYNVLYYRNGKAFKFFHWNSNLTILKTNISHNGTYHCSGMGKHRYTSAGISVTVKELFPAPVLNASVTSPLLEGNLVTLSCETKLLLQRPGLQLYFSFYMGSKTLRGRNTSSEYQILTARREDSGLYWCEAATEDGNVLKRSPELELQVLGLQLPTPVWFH

| Binder | Affinity to RI relative to WT |
| --- | --- |
| B7 | > 10 fold lower than WT |
| B8 | > 10 fold lower than WT |

biological target: T6, Recombinant human PD-1 (human, UniProt Q15116 25-170, limits assumed); experiment: BLI (Octet RED96), antibody captured on anti-human IgG Fc biosensors, PD-1 titrated; steady state (footnote *)
T6 construct: Soluble recombinant analyte in BLI; also called huPD1
T6 sequence (Q15116 25-170 limits assumed): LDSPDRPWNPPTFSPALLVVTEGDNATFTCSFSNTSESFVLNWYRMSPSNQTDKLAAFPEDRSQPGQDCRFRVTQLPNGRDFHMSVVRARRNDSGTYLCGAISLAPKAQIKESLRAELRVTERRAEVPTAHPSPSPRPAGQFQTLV

| Binder | Kd |
| --- | --- |
| B8 | 1000 nM |

biological target: T7, Cyno PD-1 (cyno); experiment: as above
T7 construct: also called cynomolgus PD-1; cyPD1

| Binder | Kd |
| --- | --- |
| B8 | 600 nM |

biological target: T1, huFcγRIIβ; experiment: BLI; ratio of the KD for huFcγRIIα (R131) to the KD for huFcγRIIβ
Method: as §2

| Binder | Fold selectivity |
| --- | --- |
| B5 | 56 fold |
| B2 | 934 fold |
| B6 | 4 fold |
| B3 | 14 fold |
| B4 | 3 fold |

biological target: PD-1 (in the reporter cells of the PD-1 agonism assay) (Homo sapiens (Human), UniProt Q15116 25-288); experiment: cell-based or functional assay
Sequence (Q15116 25-288 limits assumed): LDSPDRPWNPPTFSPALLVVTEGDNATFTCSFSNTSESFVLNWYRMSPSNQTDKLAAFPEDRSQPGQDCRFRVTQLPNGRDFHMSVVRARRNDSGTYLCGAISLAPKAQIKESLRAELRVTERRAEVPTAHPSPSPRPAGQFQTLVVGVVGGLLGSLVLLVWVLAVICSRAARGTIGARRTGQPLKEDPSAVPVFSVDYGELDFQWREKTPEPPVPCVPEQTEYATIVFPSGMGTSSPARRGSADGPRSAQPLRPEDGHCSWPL

| Binder | Emax | log EC50 |
| --- | --- | --- |
| B7 | 2.1 | -8.3 |
| B8 | 2.2 | -8.3 |

biological target: T3, human FcγRIIβ; experiment: ratio of KD on FcγRIIα R131 to KD on FcγRIIβ, Table 29

| Binder | R131/2b (fold) |
| --- | --- |
| B7 | 9.7 fold |

biological target: human FcγRIIIα (human, UniProt P08637 17-208, limits assumed); experiment: BLI, antibody captured on AHC biosensors, receptor in two-fold dilutions
Sequence (P08637 17-208 limits assumed): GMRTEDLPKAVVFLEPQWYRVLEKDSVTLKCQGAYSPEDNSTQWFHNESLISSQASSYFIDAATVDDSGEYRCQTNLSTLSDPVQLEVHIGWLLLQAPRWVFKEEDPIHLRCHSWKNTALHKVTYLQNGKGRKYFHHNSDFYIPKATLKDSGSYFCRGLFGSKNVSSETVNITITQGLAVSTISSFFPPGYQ
Method: as §2, with “20:” for “19:”, “(FcγRI or FcγRIIIα)” for “(FcγRIIα/FcγRIIβ)”, “5 μM.” for “5u M.”

| Binder | binding result |
| --- | --- |
| B9 | no binding (tested: 5 µM starting concentration) |
| B10 | no binding (tested: 5 µM starting concentration) |
| B11 | no binding (tested: 5 µM starting concentration) |
| B12 | no binding (tested: 5 µM starting concentration) |
| B13 | no binding (tested: 5 µM starting concentration) |

biological target: human FcγRI (human, UniProt P12314 16-288, limits assumed); experiment: as above
Sequence (P12314 16-288 limits assumed): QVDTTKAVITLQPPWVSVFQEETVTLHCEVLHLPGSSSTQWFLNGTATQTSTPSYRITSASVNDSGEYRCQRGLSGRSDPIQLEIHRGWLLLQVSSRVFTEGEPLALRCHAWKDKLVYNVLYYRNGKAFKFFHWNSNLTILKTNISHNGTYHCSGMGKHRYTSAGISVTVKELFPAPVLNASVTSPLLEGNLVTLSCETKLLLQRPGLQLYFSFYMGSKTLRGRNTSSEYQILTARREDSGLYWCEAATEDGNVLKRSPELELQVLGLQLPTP
Method: as §2, with “20:” for “19:”, “(FcγRI or FcγRIIIα)” for “(FcγRIIα/FcγRIIβ)”, “5 μM.” for “5u M.”

| Binder | binding result |
| --- | --- |
| B9 | no binding (tested: 5 µM starting concentration) |
| B10 | no binding (tested: 5 µM starting concentration) |
| B11 | no binding (tested: 5 µM starting concentration) |
| B12 | no binding (tested: 5 µM starting concentration) |
| B13 | no binding (tested: 5 µM starting concentration) |

biological target: T3, human FcγRIIβ; experiment: SPR, antibody captured on ProA/G HC30M chip, recombinant human FcγRIIβ injected (4 nM-5 uM); average steady state KD
Method: (§3) Example 52: The binding of anti-FcγRIIβ antibodies to human FcγRIIβ was evaluated. Antibodies were captured on ProA/G HC30M chip at 5 ug/mL, 1 ug/mL, and 0.2 ug/mL for 15 minutes. Six buffer injections were made over the chip followed by injections of increasing concentrations of recombinant human FcγRIIβ (4 nm-5 uM). The association was measured during each injection for 5 minutes and the dissociation was measured for 10 minutes post injection with buffer flow (1×HBSTE+ BSA).

| Binder | Kd |
| --- | --- |
| B14 | 40 nM |
| B15 | 120 nM |

biological target: T8, FcRN; experiment: BLI (AHC biosensors by Example 20); table headed FcRN Binding
T8 construct: also called neonatal Fc receptor
T8 sequence (P55899 24-297, chain 1 of 2): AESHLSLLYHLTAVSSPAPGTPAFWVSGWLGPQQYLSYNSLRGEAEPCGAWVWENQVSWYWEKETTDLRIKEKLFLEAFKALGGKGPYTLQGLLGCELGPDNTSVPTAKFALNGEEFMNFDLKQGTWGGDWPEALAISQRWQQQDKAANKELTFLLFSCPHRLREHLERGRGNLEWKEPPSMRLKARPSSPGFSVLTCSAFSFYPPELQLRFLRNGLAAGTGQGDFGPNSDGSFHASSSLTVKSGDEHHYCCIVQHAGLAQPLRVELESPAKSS
T8 sequence (P61769 21-119, chain 2 of 2, further chain): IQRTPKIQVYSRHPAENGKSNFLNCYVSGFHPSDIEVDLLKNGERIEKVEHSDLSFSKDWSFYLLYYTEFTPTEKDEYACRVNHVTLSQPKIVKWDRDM

| Binder | Kd | koff | kon |
| --- | --- | --- | --- |
| B5 | 273 nM | 0.103 s⁻¹ | 378000 M⁻¹ s⁻¹ |
| B2 | 231 nM | 0.0788 s⁻¹ | 341000 M⁻¹ s⁻¹ |
| B6 | 250 nM | 0.1 s⁻¹ | 400000 M⁻¹ s⁻¹ |
| B3 | 236 nM | 0.0951 s⁻¹ | 403000 M⁻¹ s⁻¹ |
| B4 | 289 nM | 0.118 s⁻¹ | 407000 M⁻¹ s⁻¹ |

biological target: T3, human FcγRIIβ; experiment: SPR, antibody captured on ProA/G HC30M chip, recombinant human FcγRIIβ injected (4 nM-5 uM); average kinetic KD
Method: as §3

| Binder | Kd |
| --- | --- |
| B14 | 37.3 nM |
| B15 | 120 nM |

From patent US20240368283A1 (published 2024)
